In patent US20260167959A1, “APTAZYME-BASED REGULATABLE GENE EXPRESSION SYSTEMS” (REJUVENATE BIO INC, priority 2022, published 2026):

B1: RA173 (nucleic acid)
DNA: GCGCGTCCTGGATTCGCGGAAACGCGTACATCCAGCTGACGAGTCCCAAATAGCGGAATACCAGCATCGTCTTGATGCCCTTGGAAGTCCGGACGAAACGCGC
modifications: expressed or natural sequence
B2: RA018 (nucleic acid)
DNA: GCGCGTCCTGGATTCGCGGAAACGCGTACATCCAGCTGACGAGTCCCAAAGTGATACCAGCATCGTCTTGATGCCCTTGGCAGCACTATAGGACGAAACGCGC
modifications: expressed or natural sequence
B3: RA175 (nucleic acid)
DNA: GCGCGTCCTGGATTCGCGGAAACGCGTACATCCAGCTGACGAGTCCCAAATAGGACGAAACGCGCCGAGAATACCAGCATCGTCTTGATGCCCTTGGAAGTCTCG
modifications: expressed or natural sequence
B4: RA164 (nucleic acid)
DNA: GCGCGTCCTGGATTCGCGGAAACGCGTACATCCAGCTGACGAGTCCCAAATAGGACGCGAGAATACCAGCATCGTCTTGATGCCCTTGGAAGTCTCGAAACGCGC
modifications: expressed or natural sequence
B5: RA001 (nucleic acid)
DNA: GCGCGTCCTGGATTCGCGGAAACGCGTACATCCAGCTGACGAGTCCCAAATAGGACGAAACGCGCAGTGATACCAGCATCGTCTTGATGCCCTTGGCAGCACT
modifications: expressed or natural sequence
B6: RA187 (nucleic acid)
DNA: GCGCGTCCTGGATTCGCGGAAACGCGTACATCCAGCTGACGAGTCCCAAATAGGACGAAACGCGCGAGAATACCAGCATCGTCTTGATGCCCTTGGAAGTCTC
modifications: expressed or natural sequence
B7: RA165 (nucleic acid)
DNA: GCGCGTCCTGGATTCGCGGAAACGCGTAGAGAATACCAGCATCGTCTTGATGCCCTTGGAAGTCTCCATCCAGCTGACGAGTCCCAAATAGGACGAAACGCGC
modifications: expressed or natural sequence
B8: RA176 (nucleic acid)
DNA: GCGCGTCCTGGAATACCAGCATCGTCTTGATGCCCTTGGAAGTCCGGATTCGCGGAAACGCGTACATCCAGCTGACGAGTCCCAAATAGGACGAAACGCGC
modifications: expressed or natural sequence
B9: RA174 (nucleic acid)
DNA: GCGCGTCCTGGATTCGCGGAAACGCGTACATCCAGCCGGAATACCAGCATCGTCTTGATGCCCTTGGAAGTCCGTGACGAGTCCCAAATAGGACGAAACGCGC
modifications: expressed or natural sequence
B10: RA017 (nucleic acid)
DNA: GCGCGTCCTGGCGGAATACCAGCATCGTCTTGATGCCCTTGGAAGTCCGATTCGCGGAAACGCGTACATCCAGCTGACGAGTCCCAAATAGGACGAAACGCGC
modifications: expressed or natural sequence
B11: RA016 (nucleic acid)
DNA: GCGCGTCCTGGATGAGAATACCAGCATCGTCTTGATGCCCTTGGAAGTCTCTCGCGGAAACGCGTACATCCAGCTGACGAGTCCCAAATAGGACGAAACGCGC
modifications: expressed or natural sequence
B12: RA167 (nucleic acid)
DNA: GCGCGTCCTGGATTCGCGGAAACGCGTACATCCAGGGAATACCAGCATCGTCTTGATGCCCTTGGAAGTCCCTGACGAGTCCCAAATAGGACGAAACGCGC
modifications: expressed or natural sequence
B13: RA184 (nucleic acid)
DNA: GAGAATACCAGCATCGTCTTGATGCCCTTGGAAGTCTCGCGTCCTGGATTCGCGGAAACGCGTACATCCAGCTGACGAGTCCCAAATAGGACGAAACGCGC
modifications: expressed or natural sequence
B14: RA171 (nucleic acid)
DNA: GCGCGTCCTGGATTCGCGGAAACGCGTACACGAGAATACCAGCATCGTCTTGATGCCCTTGGAAGTCTCGTCCAGCTGACGAGTCCCAAATAGGACGAAACGCGC
modifications: expressed or natural sequence
B15: RA168 (nucleic acid)
DNA: GCGCGTCCTGGATCGAGAATACCAGCATCGTCTTGATGCCCTTGGAAGTCTCGTCGCGGAAACGCGTACATCCAGCTGACGAGTCCCAAATAGGACGAAACGCGC
modifications: expressed or natural sequence
B16: RA172 (nucleic acid)
DNA: AGAATACCAGCATCGTCTTGATGCCCTTGGAAGTCTGCGCGTCCTGGATTCGCGGAAACGCGTACATCCAGCTGACGAGTCCCAAATAGGACGAAACGCGC
modifications: expressed or natural sequence
B17: RA166 (nucleic acid)
DNA: GCGCGTCCTGGATTCGCGGAAACGCGTACATCCAGCTGACGAGTCCCACGAGAATACCAGCATCGTCTTGATGCCCTTGGAAGTCTCGAATAGGACGAAACGCGC
modifications: expressed or natural sequence
B18: RA178 (nucleic acid)
DNA: GCGCGTCCTGGATTCGCGGAAACGCGTACATCCGGAATACCAGCATCGTCTTGATGCCCTTGGAAGTCCAGCTGACGAGTCCCAAATAGGACGAAACGCGC
modifications: expressed or natural sequence
B19: RA186 (nucleic acid)
DNA: GCGCGTCCTGGATTCGCGCGAGAATACCAGCATCGTCTTGATGCCCTTGGAAGTCTCGGAAACGCGTACATCCAGCTGACGAGTCCCAAATAGGACGAAACGCGC
modifications: expressed or natural sequence
B20: RA185 (nucleic acid)
DNA: GCGCGTCCTGGATTCGCGGAAACGCGTACATCCAGCTGACGAGTCCCAAATACGGAATACCAGCATCGTCTTGATGCCCTTGGAAGTCCGGGACGAAACGCGC
modifications: expressed or natural sequence
B21: RA179 (nucleic acid)
DNA: GCGCGTCCTGGATTCGCGGAAACGCGTACATCCAGCTCGGAATACCAGCATCGTCTTGATGCCCTTGGAAGTCCGGACGAGTCCCAAATAGGACGAAACGCGC
modifications: expressed or natural sequence
B22: RA170 (nucleic acid)
DNA: GCGCGTCCTGGATTCGCGGAAACGCGTACATCCAGCTGACGAGTCCCAAATAGGACGAAACGCAGAATACCAGCATCGTCTTGATGCCCTTGGAAGTCTGC
modifications: expressed or natural sequence
B23: RA180 (nucleic acid)
DNA: GCGCGTCCTGGATTCGCGGAAACGCGTACATCCAGCTGGAGAATACCAGCATCGTCTTGATGCCCTTGGAAGTCTCACGAGTCCCAAATAGGACGAAACGCGC
modifications: expressed or natural sequence
B24: RA182 (nucleic acid)
DNA: GCGCGTCCTGGATTCGCGGAAACGCGGAGAATACCAGCATCGTCTTGATGCCCTTGGAAGTCTCTACATCCAGCTGACGAGTCCCAAATAGGACGAAACGCGC
modifications: expressed or natural sequence
B25: RA169 (nucleic acid)
DNA: GCGCGTCCTGGCCGGAATACCAGCATCGTCTTGATGCCCTTGGAAGTCCGGATTCGCGGAAACGCGTACATCCAGCTGACGAGTCCCAAATAGGACGAAACGCGC
modifications: expressed or natural sequence
B26: RA181 (nucleic acid)
DNA: GCGCGCCGGAATACCAGCATCGTCTTGATGCCCTTGGAAGTCCGGTCCTGGATTCGCGGAAACGCGTACATCCAGCTGACGAGTCCCAAATAGGACGAAACGCGC
modifications: expressed or natural sequence
B27: RA183 (nucleic acid)
DNA: GCGCGTCCTGGATTCGCGGAAACGCGTACATCCAGCTGAGAATACCAGCATCGTCTTGATGCCCTTGGAAGTCTACGAGTCCCAAATAGGACGAAACGCGC
modifications: expressed or natural sequence
B28: RA177 (nucleic acid)
DNA: GCGCGTCCTGGATTCGCGGAAACGCGTACATCCAGCTGACGAGTCCCAAATAGGACGAAACGCAGTGATACCAGCATCGTCTTGATGCCCTTGGCAGCACTGC
modifications: expressed or natural sequence

test system: Renilla luciferase RNA; test: Barcoded aptazyme variant library screen: un-cleaved Renilla luciferase RNA by barcode read counts, HEK293-T cells; type: cell-based; conditions: un-cleaved Renilla luciferase RNA, HEK293-T cells cultured with 1 mM theophylline (ON) over without theophylline (OFF); barcode read counts, triplicate
In short: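 Barcode sequencing of cDNA versus DNA, normalized per aptazyme, gave the un-cleaved Renilla luciferase RNA fraction and fold-change with versus without theophylline (triplicates). Library: T3H48 ribozyme with one of seven theophylline aptamer variants inserted at each position, placed in the Renilla 3′ UTR of a dual-luciferase vector.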

In order of falling “Fold change in RNA expression between the ON state and the OFF state” value:
1. B2  2.8 fold
2. B10  2.8 fold
3. B11  2.8 fold
4. B1  1.3 fold
5. B3  1.3 fold
6. B4  1.3 fold
7. B6  1.3 fold
8. B7  1.3 fold
9. B8  1.3 fold
10. B9  1.3 fold
11. B12  1.3 fold
12. B13  1.3 fold
13. B14  1.3 fold
14. B15  1.3 fold
15. B16  1.3 fold
16. B17  1.3 fold
17. B18  1.3 fold
18. B19  1.3 fold
19. B20  1.3 fold
20. B21  1.3 fold
21. B22  1.3 fold
22. B23  1.3 fold
23. B24  1.3 fold
24. B25  1.3 fold
25. B26  1.3 fold
26. B27  1.3 fold
27. B28  1.3 fold

With B5 the “Fold change in RNA expression between the ON state and the OFF state” value was greater than 6 fold.
